Tests used:
Human DLL3-His = target: T1, Human DLL3-His (human, UniProt Q9NYJ7 27-492); assay: SPR (ProteOn XPR36), bispecific captured on protein A/G, DLL3 as analyte, Example 4A
T1 construct: also called huDLL3-His; hu DLL3
T1 sequence: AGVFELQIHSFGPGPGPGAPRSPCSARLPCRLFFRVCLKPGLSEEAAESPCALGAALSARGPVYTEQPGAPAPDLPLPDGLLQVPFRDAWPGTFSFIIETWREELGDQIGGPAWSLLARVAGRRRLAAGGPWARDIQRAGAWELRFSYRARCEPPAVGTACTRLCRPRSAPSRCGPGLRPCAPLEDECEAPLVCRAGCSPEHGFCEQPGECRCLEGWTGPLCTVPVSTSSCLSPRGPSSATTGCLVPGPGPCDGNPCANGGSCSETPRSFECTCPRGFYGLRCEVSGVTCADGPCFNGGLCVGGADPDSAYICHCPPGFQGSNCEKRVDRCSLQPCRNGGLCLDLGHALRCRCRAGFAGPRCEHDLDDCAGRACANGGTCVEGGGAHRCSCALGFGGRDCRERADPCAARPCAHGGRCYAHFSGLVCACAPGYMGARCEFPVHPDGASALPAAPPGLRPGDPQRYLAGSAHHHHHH

EGF4+5 = target: T2, EGF4+5; assay: flow cytometry on HEK293 cells expressing the DLL3 subdomain construct, 1.6 nM binder, PE anti-human secondary, control: secondary antibody only
T2 construct: also called Hu DLL3 EGF4+5 on HEK293 cells
T2 membrane-anchored DLL3 subdomain construct: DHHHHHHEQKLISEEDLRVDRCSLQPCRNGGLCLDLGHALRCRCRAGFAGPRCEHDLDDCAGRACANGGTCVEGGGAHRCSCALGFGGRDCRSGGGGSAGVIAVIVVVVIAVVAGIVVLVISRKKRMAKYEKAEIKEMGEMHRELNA
Experimental: (§1) DLL3/CD3 binding proteins were produced by transient transfection of CHO-E cells with the pTT5 vectors carrying the chain-encoding genes, as described in Example 2. […] Bound molecules were detected with PE-conjugated anti-human secondary antibody (Sigma-Aldrich, #P8047). As negative control, cells were incubated with secondary antibody only.
(§2) The samples were measured by flow-cytometry. […] The sequences of the epitope domains are listed in Example 5, Table 3.

EGF3+4 = target: T3, EGF3+4; assay: as above
T3 construct: also called Hu DLL3 EGF3+4 on HEK293 cells
T3 membrane-anchored DLL3 subdomain construct: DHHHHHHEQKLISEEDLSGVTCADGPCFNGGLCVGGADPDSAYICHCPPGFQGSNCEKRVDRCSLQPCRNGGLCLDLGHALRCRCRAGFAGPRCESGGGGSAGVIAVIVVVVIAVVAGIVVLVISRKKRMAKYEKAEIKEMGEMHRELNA
Experimental: as §1, §2

EGF1+2 = target: T4, EGF1+2; assay: as above
T4 construct: also called Hu DLL3 EGF1+2 on HEK293 cells
T4 membrane-anchored DLL3 subdomain construct: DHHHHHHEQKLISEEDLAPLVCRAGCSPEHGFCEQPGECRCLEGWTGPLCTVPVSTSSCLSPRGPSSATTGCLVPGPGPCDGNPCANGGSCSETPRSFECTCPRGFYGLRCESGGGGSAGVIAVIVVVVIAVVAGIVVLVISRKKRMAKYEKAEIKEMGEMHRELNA
Experimental: as §1, §2

B1: DLL3#3/CD3#2 (bispecific antibody, human IgG1, kappa, lambda, L234A L235A)
chain 1: DIQMTQSPSAMSASVGDRVTITCRASQGISNYLVWFQQKPGKAPKRLIYAVSSLYSGVPSRFSGSGSGTEFTLTISSLQPEDFATYYCLQHDSYPYTFGQGTKLEIKRTVAAPSVFIFPPSDEQLKSGTASVVCLLNNFYPREAKVQWKVDNALQSGNSQESVTEQDSKDSTYSLSSTLTLSKADYEKHKVYACEVTHQGLSSPVTKSFNRGECGGGGSEGKSSGSGSESKSTEGKSSGSGSESKSTGGGGSQVQLVQSGAEVKKPGASVKVSCKASGYTFTSYYVHWVRQAPGQGLEWMVIINPGGGTTSYAQKFLGRVTMTRDTSTNTVYMELKSLRSEDTAVYYCARGEAVTGNYFYYGMDVWGQGTTVTVSSASTKGPSVFPLAPSSKSTSGGTAALGCLVKDYFPEPVTVSWNSGALTSGVHTFPAVLQSSGLYSLSSVVTVPSSSLGTQTYICNVNHKPSNTKVDKRVEPKSCDKTHTCPPCPAPEAAGGPSVFLFPPKPKDTLMISRTPEVTCVVVDVSHEDPEVKFNWYVDGVEVHNAKTKPREEQYNSTYRVVSVLTVLHQDWLNGKEYKCKVSNKALPAPIEKTISKAKGQPREPQVYTLPPSREEMTKNQVSLWCLVKGFYPSDIAVEWESNGQPENNYKTTPPVLDSDGSFFLYSKLTVDKSRWQQGNVFSCSVMHEALHNHYTQKSLSLSPG
chain 2: EAVVTQEPSLTVSPGGTVTLTCRSSTGAVTTSNYANWVQEKPGQLPRGLIGGTNKRAPWVPARFSGSLLGGKAALTLSGAQPEDEAEYFCALWYSNLWVFGGGTKLTVLGQPKAAPSVTLFPPSSEELQANKATLVCLISDFYPGAVKVAWKADGSPVNTGVETTTPSKQSNNKYAASSYLSLTPEQWKSHRSYSCQVTHEGSTVEKTVAPAECSGGGGSEGKSSGSGSESKSTEGKSSGSGSESKSTGGGGSEVQLVESGGGLVQPGGSLKLSCAASGFTFNTYAMNWVRQAPGKGLEWVARIRSKYINYATYYADSVKDRFTISRDDSKNTAYLQMNNLKTEDTAVYYCVRHGNFGNSYVSWFAYWGQGTLVTVSAASTKGPSVFPLAPSSKSTSGGTAALGCLVKDYFPEPVTVSWNSGALTSGVHTFPAVLQSSGLYSLSSVVTVPSSSLGTQTYICNVNHKPSNTKVDKRVEPKSCDKTHTCPPCPAPEAAGGPSVFLFPPKPKDTLMISRTPEVTCVVVDVSHEDPEVKFNWYVDGVEVHNAKTKPREEQYNSTYRVVSVLTVLHQDWLNGKEYKCKVSNKALPAPIEKTISKAKGQPREPQVYTLPPSREEMTKNQVSLSCAVKGFYPSDIAVEWESNGQPENNYKTTPPVLDSDGSFFLVSKLTVDKSRWQQGNVFSCSVMHEALHNRFTQKSLSLSPG
notes: Heterodimer of one DLL3 chain and one CD3 chain (scFab-Fc, knob-in-hole)
Human DLL3-His
  Kd: < 0.01 nM

B2: DLL3#4/CD3#1 (bispecific antibody, human IgG1, kappa, lambda, L234A L235A)
chain 1: not shown
chain 2: EAVVTQEPSLTVSPGGTVTLTCRSSTGAVTTSNYANWVQEKPGQLPRGLIGGTNKRAPWVPARFSGSLLGGKAALTLSGAQPEDEAEYFCALWYSNLWVFGGGTKLTVLGQPKAAPSVTLFPPSSEELQANKATLVCLISDFYPGAVKVAWKADGSPVNTGVETTTPSKQSNNKYAASSYLSLTPEQWKSHRSYSCQVTHEGSTVEKTVAPAECSGGGGSEGKSSGSGSESKSTEGKSSGSGSESKSTGGGGSEVQLVESGGGLVQPGGSLKLSCAASGFTFNTYAMNWVRQAPGKGLEWVARIRSKYNNYATYYADSVKDRFTISRDDSKNTAYLQMNNLKTEDTAVYYCVRHGNFGNSYVSWFAYWGQGTLVTVSAASTKGPSVFPLAPSSKSTSGGTAALGCLVKDYFPEPVTVSWNSGALTSGVHTFPAVLQSSGLYSLSSVVTVPSSSLGTQTYICNVNHKPSNTKVDKRVEPKSCDKTHTCPPCPAPEAAGGPSVFLFPPKPKDTLMISRTPEVTCVVVDVSHEDPEVKFNWYVDGVEVHNAKTKPREEQYNSTYRVVSVLTVLHQDWLNGKEYKCKVSNKALPAPIEKTISKAKGQPREPQVYTLPPSREEMTKNQVSLSCAVKGFYPSDIAVEWESNGQPENNYKTTPPVLDSDGSFFLVSKLTVDKSRWQQGNVFSCSVMHEALHNRFTQKSLSLSPG
notes: as for B1
EGF4+5
  binding result: binds
EGF3+4
  binding result: binds

B3: DLL3#5/CD3#1 (bispecific antibody, human IgG1, kappa, lambda, L234A L235A)
chain 1: not shown
chain 2: EAVVTQEPSLTVSPGGTVTLTCRSSTGAVTTSNYANWVQEKPGQLPRGLIGGTNKRAPWVPARFSGSLLGGKAALTLSGAQPEDEAEYFCALWYSNLWVFGGGTKLTVLGQPKAAPSVTLFPPSSEELQANKATLVCLISDFYPGAVKVAWKADGSPVNTGVETTTPSKQSNNKYAASSYLSLTPEQWKSHRSYSCQVTHEGSTVEKTVAPAECSGGGGSEGKSSGSGSESKSTEGKSSGSGSESKSTGGGGSEVQLVESGGGLVQPGGSLKLSCAASGFTFNTYAMNWVRQAPGKGLEWVARIRSKYNNYATYYADSVKDRFTISRDDSKNTAYLQMNNLKTEDTAVYYCVRHGNFGNSYVSWFAYWGQGTLVTVSAASTKGPSVFPLAPSSKSTSGGTAALGCLVKDYFPEPVTVSWNSGALTSGVHTFPAVLQSSGLYSLSSVVTVPSSSLGTQTYICNVNHKPSNTKVDKRVEPKSCDKTHTCPPCPAPEAAGGPSVFLFPPKPKDTLMISRTPEVTCVVVDVSHEDPEVKFNWYVDGVEVHNAKTKPREEQYNSTYRVVSVLTVLHQDWLNGKEYKCKVSNKALPAPIEKTISKAKGQPREPQVYTLPPSREEMTKNQVSLSCAVKGFYPSDIAVEWESNGQPENNYKTTPPVLDSDGSFFLVSKLTVDKSRWQQGNVFSCSVMHEALHNRFTQKSLSLSPG
notes: as for B1
EGF1+2
  binding result: binds

— patent publication US20220251236A1 (Boehringer Ingelheim, published 2022)
